According to PMC11142921 (2024):
Numbering of substitutions follows the chain as printed. Like-named read-outs stand apart in the source and are kept apart here. Values belong to the binder of their own block, whether it stands above or below them.

Key:
Assay in all cases: BLI
hPAD4 Y435A = hPAD4 Y435A (human, UniProt Q9UM07 1-663, Y435A)
hPAD4 N438R = hPAD4 N438R (human, UniProt Q9UM07 1-663, N438R)
[1] = target: hPAD4 R8E–Y435A double mutant (human, UniProt Q9UM07 1-663, R8E | Y435A)
[2] = target: T1, human protein arginine deiminase 4 (hPAD4), wild type (human, UniProt Q9UM07 1-663, biotin on the N-terminal AviTag)
T1 sequence (Q9UM07 whole entry): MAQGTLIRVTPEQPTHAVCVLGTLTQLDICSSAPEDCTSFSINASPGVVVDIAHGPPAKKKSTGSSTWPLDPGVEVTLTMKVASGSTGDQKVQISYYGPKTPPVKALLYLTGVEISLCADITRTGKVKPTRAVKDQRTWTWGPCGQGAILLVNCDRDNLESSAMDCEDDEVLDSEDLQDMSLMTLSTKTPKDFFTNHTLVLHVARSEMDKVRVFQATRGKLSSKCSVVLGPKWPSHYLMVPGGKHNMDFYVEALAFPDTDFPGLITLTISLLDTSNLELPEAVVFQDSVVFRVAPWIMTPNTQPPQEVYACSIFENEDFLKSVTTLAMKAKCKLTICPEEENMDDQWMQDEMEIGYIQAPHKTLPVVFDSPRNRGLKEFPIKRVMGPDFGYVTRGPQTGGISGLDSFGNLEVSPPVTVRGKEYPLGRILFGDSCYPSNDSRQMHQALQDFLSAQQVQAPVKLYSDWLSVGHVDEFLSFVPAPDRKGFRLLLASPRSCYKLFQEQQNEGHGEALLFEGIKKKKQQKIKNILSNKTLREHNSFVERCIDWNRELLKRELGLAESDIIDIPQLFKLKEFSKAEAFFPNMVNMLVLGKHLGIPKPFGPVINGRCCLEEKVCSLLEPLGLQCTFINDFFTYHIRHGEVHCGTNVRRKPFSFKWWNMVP

[3] = target: T1, human protein arginine deiminase 4 …; remark: listed apart in the source
[4] = target: T1, human protein arginine deiminase 4 …; remark: listed apart in the source

hPAD4 N438R, sequence (Q9UM07 whole entry N438R): as the sequence (Q9UM07 whole entry) above, with N438R counted along it
hPAD4 Y435A, sequence (Q9UM07 whole entry Y435A): as the sequence (Q9UM07 whole entry) above, with Y435A counted along it
hPAD4 R8E–Y435A double mutant, sequence (Q9UM07 whole entry R8E/Y435A): as the sequence (Q9UM07 whole entry) above, with R8E, Y435A counted along it

Kd (hPAD4 Y435A): 17.5 nM
Kd (hPAD4 N438R): 1.56 nM
Kd [1]: 269 nM
Kd [2]: 1.7 nM
B1: hA362 Fab (Fab, V domains shown)
VH: EVQLVESGGGLVQPGGSLRLSCAASGFNVSYYSIHWVRQAPGKGLEWVASISPYYGSTYYADSVKGRFTISADTSKNTAYLQMNSLRAEDTAVYYCARHPYRKGYSGLDYWGQGTLVTVSS
VL: DIQMTQSPSSLSASVGDRVTITCRASQSVSSAVAWYQQKPGKAPKLLIYSASSLYSGVPSRFSGSRSGTDFTLTISSLQPEDFATYYCQQSSYLPLFTFGQGTKVEIK

Kd [3]: 1.3 nM
B2: E6 (affinity-matured variant of hI365) (antibody, V domains shown)
VH: EVQLVESGGGLVQPGGSLRLSCAASGFNFYYSIHWVRQAPGKGLEWVASISPYTDRTSYADSVKGRFTISADTSKNTAYLQMNSLRAEDTAVYYCARKHPGRYPNWGFALDYWGQGTLVTVSS
VL: B1 VL with S92M, Y93S, L94S, P95Q, F97V

Kd [4]: 0.001 nM
B3: hA362 IgG (antibody, V domains shown)
VH: B1 VH
VL: B1 VL

Kd [3]: 2.4 nM
B4: E3 (affinity-matured variant of hI365) (antibody, V domains shown)
VH: B2 VH with Y30F, R56Y, R102S, N105F
VL: DIQMTQSPSSLSASVGDRVTITCRASQSVSSAVAWYQQKPGKAPKLLIYSASSLYSGVPSRFSGSRSGTDFTLTISSLQPEDFATYYCQQSSSSLVTFGQGTKVEIK

Kd [4]: 1.8 nM
B5: hI365 IgG (antibody, V domains shown)
VH: B2 VH with T54S, D55G, R56Y, R102S, N105F, F108W
VL: B4 VL
